Measured values from patent US20220144895A1, “DE NOVO DESIGN OF TUNABLE PH-DRIVEN CONFORMATIONAL SWITCHES” (University of Washington, priority 2019, published 2022).
“Also recorded” adds a separate entry of the source.

Legend:
[1] = test system: U2-OS cells; conditions: Bafilomycin A 1 μM, Chloroquine 50 μM as controls; cited from earlier work
[2] = Fluorescence dequenching liposome leakage (liposome disruption) assay; type: biochemical; conditions: pH 5, 2.5 μM protein
Method: Liposomes composed of DOPC (1,2-dioleoyl-sn-glycero-3-phosphocholine), DOPC with 25% cholesterol (molar ratio to DOPC), 3:1 DOPC:POPS (1-palmitoyl-2-oleoyl-sn-glycero-3-phospho-L-serine), and 3:1 DOPC:POPS with 25% cholesterol were prepared identically to a final concentration of 5 mM total lipid as previously described (32); lipids from Avanti Polar Lipids. Lipids solubilized in chloroform were dried under nitrogen gas and stored under vacuum for a minimum of 2 hours to remove residual solvent. The dried lipid film was the resuspended in Tris buffer (10 mM Tris, 150 mM NaCl, and 0.02% NaN3 pH 8.0) containing 25 mM Sulforhodamine B (SRB) fluorophore (Sigma) and subjected to 10 sequential freeze thaw cycles in liquid nitrogen. Liposomes were extruded 29 times through 100 nm pore size polycarbonate filters (Avanti Polar Lipids) and purified from free fluorophore using a PD-10 gel filtration column (GE Healthcare) into storage buffer (10 mM Tris, 150 mM NaCl, and 0.02% NaN3 pH 8.0). Liposome size and homogeneity was analyzed by dynamic light scattering (DLS) using a Dynapro Nanostar™ DLS (Wyatt Technologies). On average liposome diameter ranged from 120-130 nm with low polydispersity. Liposomes were stored at 4° C. and used within 5 days of preparation.
Liposome disruption and content leakage was analyzed by fluorescence spectroscopy as previously described (32). […] The solution was rapidly acidified to the target pH by addition of a fixed volume of acidification buffer and incubated for 20 minutes. […] SRB fluorescence is independent of pH within the ranges used here. Finally. Triton X-100 (Sigma) was added to a final concentration of 1% to fully disrupt liposomes. Liposome disruption as indicated by content leakage and SRB dequenching was normalized using the formula [Fω−F(0)]/[F(Max)−F(0)] where F(0) is the average fluorescence intensity before acidification and F(Max) is the average fluorescence intensity ater addition of Triton X-100. All measurements were collected on a Varian Cary Eclipse spectrophotometer using an excitation/emission pairing of […] and 2.5 nm slit widths at 24° C. Any data plotted together was collected using the sum batch of liposomes.

[3] = Cryo-electron microscopy and tomography of proteins with DOPC liposomes; conditions: gold-nanoparticle conjugates, pH 5 and pH 8
Method: The conjugation reactions were performed immediately prior to use for electron microscopy imaging. […] The grids were prepared using a Vitrobot Mark IV (FEI) at 4 C and 100% humidity before being plunge-frozen in ethane cooled with liquid nitrogen.
Electron micrographs were collected using a Tecnai G2 Spirit™ Transmission Electron Microscope (FEI) operated at 120 kV and equipped with a 4k×4k Gatan Ultrascan CCD camera at a nominal magnification of 26,000× or a Tecnai TF-20 Transmission Electron Microscope (FEI) operated at 200 kV equipped with a K2 Summit Direct Electron Detector (Gatan).
Projection micrographs collected on the TF-20 were captured with the detector operating in counting mode. Specimens were imaged at 14,500 magnification, giving a pixel size of 0.254 nm, with a dose of ˜18e−/Å^2 across 75 200 ms movie frames. Data were collected in a semi-automated fashion using Leginon™ (49) and micrograph movie frames were aligned using MotionCor2™ (50). Leginon™ was used to collect tomography tilt series from −48 to +48 degrees bidirectionally in 3 degree increments with a total accumulated dose of ˜100 e−/Å^2. Reconstructions were processed using etomo in the IMOD™ software suite (31) with CTF parameters estimated from CTFFIND4™ (52). Reconstructed tomograms were visualized and measurements were made using ImageJ™ (53).

[4] = biological target: the molecule itself; experiment: native mass spectrometry at 5 uM trimer
Method: Samples were buffer exchanged twice into 200 mM ammonium acetate (NH₄Ac; MilliporeSigma) using Micro Bio-Spin P-6 columns (Bio-Rad). […]

[5] = test system: U2-OS cells; experiment: Colocalization of +36GFP fusions with lysosomal membrane (confocal microscopy); type: cell-based; conditions: 5 μM, 1 hr
Method: U-2 OS (ATCC) cells were cultured in DMEM supplemented with 10% (v/v) inactivated FBS (Corning), 2 mM glutamine, penicillin (100 IU/mL), and streptomycin (100 μg/mL) at 37° C. and 5% CO2. The glass-bottom coverslip chambers were pre-coated with 500 μg/mL of Matrigel (Corning). Transfection of LAMP1-HaloTagTM was performed using Lonza Nucleofector system according to the manufacturer's specifications. After overnight of recovery and expression, the cells expressing LAMP1-HaloTagTM were labeled with 100 nM JF646-HTL for 30 minutes and washed three times with pre-warmed DMEM medium. The final concentration of 5 μM+36GFP fusion proteins was incubated with the LAMP1-HaloTagTM expressing U-2 OS cells on a pre-coated coverslip for 1 hr. Cells were fixed with 4% paraformaldehyde for 20 min at room temperature (RT) and quenched/rinsed with PBS supplemented with 30 mM glycine. Then, the coverslips were mounted on FluoroSaveTM (Millipore). For pH measurement of the lysosome, LysoSensorTM Yellow/Blue DND-160 was incubated at 1 mg/mL overnight and washed twice prior to imaging (54). The final concentration of 5 μM protein was incubated with the LAMP1-HaloTag expressing U2-OS cells that were loaded with 1 mg/mL LysoSensorTM Yellow/Blue DND-160 for 1 hr. In separate chambers, LysoSensorTM Yellow/Blue DND-160 loaded cells were incubated with bafilomycin A1 (1 μM) and chloroquine (50 μM) for 1 hr as a control. For fixed cell confocal microscopy, a customized Nikon TiE inverted scope outfitted with a Yokogawa spinning-disk scan head (#CSU-X1) along with an Andor iXonTM EM-CCD camera (DU-897) with […] exposure time was used to collect 3D images using an SR Apo TIRF 100×1.49 oil-immersion objective. […] coefficients were calculated in 3D with JF646 signal (LAMP-HaloTag) and +36GFP signal (corresponding proteins) using Imaris software with thresholding. Zeiss 880 equipped with AiryScanTM was also used to obtain high resolution images using a Plan-Apochromatic 63×/1.4 oil DIC objective.

[6] = Native mass spectrometry of pH-induced changes in oligomeric state; type: physicochemical; conditions: native MS
Method: Samples were buffer exchanged twice into 200 mM ammonium acetate (NH4Ac; MilliporeSigma) using Micro Bio-Spin P-6 columns (Bio-Rad). Protein concentrations were determined by UV absorbance using a Nanodrop 2000c spectrophotometer (Thermo Fisher Scientific) and diluted to make up a 10-fold stock solution (50 μM and 16.7 μM monomer and trimer concentration, respectively). 1 μL of this solution was mixed with 9 μL 200 mM NH4Ac/50 mM triethylammonium acetate (TEAA; MilliporeSigma), adjusted with acetic acid (Fisher Scientific) to obtain the desired final pH and incubated on ice for 30 min. […] 5 μL samples were filled into an in-house pulled glass capillary and ionized by nESI at a monomer or a trimer concentration of 5 μM or 1.67 μM respectively. All pH titration data were acquired on an in-house modified SYNAPT® G2 HDMS (Waters Corporation) with a surface-induced dissociation (SID) device incorporated between a truncated trap traveling wave ion guide and the ion mobility cell (39). The following instrument parameters were used spray voltage 0.9-1.3 kV; sampling cone, 20 V; extraction cone, 2 V; source temperature, room temperature; trap gas flow, 4 mL/min; trap bins, 45V. The data were processed with MassLynx™ v4.1 and DriftScope™ v2.1. For relative quantification, charge state series were extracted from DriftScope™, and smoothed spectra (mean; window 20; number of smooths 20) were integrated.
Python scripts were written to generate theoretical models according Equation 1, and curve-fitting to native mass spectrometry data (FIGS. 1, 3, 5) according to Equation 2 by nonlinear least squares using curve fit from scipy.optimize. The free energy estimates for individual n, m, and l layers used in Equation 1 modeling were estimated by solving linear equations as follows: values for the free energy of folding for designs pRO-2 and variants were estimated from GdmCl denaturation experiments (FIG. 11); each of these designs have different numbers of n, m, and l layers, thus series of linear equations relating the number of each layer type to the total free energies of folding were solved to estimate dG values of the individual layers of each type.

[7] = pH 7.4
From the text: For low-pH experiments involving circular dichroism (CD), small-angle X-ray scattering (SAXS), and size exclusion chromatography (SEC), Na2PO4-Citrate buffer was used to ensure that a single buffer system could be used that was stable over the entire pH range to be tested. Buffers were made using established ratios of stock solutions of 0.2 M Na2PO4 and 0.1 M Citrate; final pH was adjusted using hydrochloric acid (HCl) or sodium hydroxide (NaOH) if needed.
CD wavelength scans (260 to 195 nm) and temperature melts (25 to 95° C.) were measured using a JASCO™ J-1500 or an AVIV™ model 420 CD spectrometer. Temperature melts monitored absorption signal at 222 nm and were carried out at a heating rate of 4° C./min; protein samples were at 0.25 mg/mL in either phosphate buffered saline (PBS) pH 7.4 or Na2PO4-Citrate at indicated pH values (see Buffers systems for varying pH). Guanidinium chloride (GdmCl) titrations were all performed on an AVIV 420 spectrometer with an automated titration apparatus using either PBS pH 7.4 or Na2PO4-Citrate buffers at indicated pH at room temperature, monitoring helical signal at 222 nm, using a protein concentration of 0.025 mg/mL in a 1 cm cuvette with stir bar. Each titration consisted of at least 30 evenly distributed concentration points with one minute mixing time for each step. Titrant solution consisted of the same concentration of protein in the same buffer system plus GdmCl; GdmCl concentration of starting solutions was determined by reactive index.

[8] = biological target: the molecule itself; experiment: native mass spectrometry at the indicated pH
Method: Samples were buffer exchanged twice into 200 mM ammonium acetate (NH₄Ac; MilliporeSigma) using Micro Bio-Spin P-6 columns (Bio-Rad). Protein concentrations were determined by UV absorbance using a Nanodrop 2000c spectrophotometer (Thermo Fisher Scientific) and diluted to make up a 10-fold stock solution (50 μM and 16.7 μM monomer and trimer concentration, respectively). 1 μL of this solution was mixed with 9 μL 200 mM NH₄Ac/50 mM triethylammonium acetate (TEAA; MilliporeSigma), adjusted with acetic acid (Fisher Scientific) to obtain the desired final pH and incubated on ice for 30 min.

[9] = Size-exclusion chromatography (SEC); type: physicochemical; conditions: high concentration
Method: Cells were lysed by microfluidization in the presence of 1 mM PMSF. Lysates were clarified by centrifugation at 24,000 ref at 4° C. for at least 30 minutes. Proteins were purified by Immobilized metal affinity chromatography (IMAC): supernatant was applied to Ni-NTA (Qiagen) columns pre-equilibrated in lysis buffer. The column was washed twice with 15 column volumes (CV) of wash buffer (25 mM Tris pH 8.0 at room temperature, 300 mM NaCl, 40 mM Imidazole), followed by 3-5 CV of high-salt wash buffer (25 mM Tris pH 8.0 at room temperature, 1 M NaCl, 40 mM Imidazole) then an additional 15 CV of wash buffer. Protein was eluted with 250 mM Imidazole, and buffer-exchanged into 25 mM Tris pH 8.0 and 150 mM NaCl without imidazole for cleavage of the N-terminal hexahistidine tag by purified hexahistidine-tagged TEV protease (with the exception of design pRO-1, which was cleaved using restriction grade thrombin (EMD Millipore 69671-3) at room temperature for 4 hours or overnight, using a 1:3000 dilution of enzyme into sample solution). A second Ni-NTA step was used to remove hexahistidine tag, uncleaved sample and the hexahistidine-tagged TEV protease, and the cleaved proteins were then […], 150 mM NaCl, and 2% glycerol.

[10] = biological target: T1, pRO-4 Chain B (heterodimer pRO-4), hexahistidine tag cleaved; experiment: SEC and native mass spectrometry; heterodimer
T1 construct: The tag was removed for all pH experiments
T1 chain: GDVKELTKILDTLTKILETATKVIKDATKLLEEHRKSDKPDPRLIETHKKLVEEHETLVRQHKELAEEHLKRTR

Molecule: CCN(CC)CCCC(C)Nc1ccnc2cc(Cl)ccc12 (stereo not shown) [Chloroquine]
- effect on lysosomal pH (known drugs) [1]: known to neutralize lysosomal pH

Molecule: CO/C1=C\C(C)=C\[C@@H](C)[C@@H](O)[C@@H](C)C/C(C)=C/C=C/[C@H](OC)[C@@H]([C@@H](C)[C@@H](O)[C@H](C)[C@@]2(O)C[C@@H](O)[C@H](C)[C@@H](C(C)C)O2)OC1=O [Bafilomycin A]
- effect on lysosomal pH (known drugs) [1]: known to neutralize lysosomal pH

B1: pRO-2-noHis subunit (homotrimer lacking histidine networks) (designed binder)
chain: GSEYEIRKALEELKASTAELKRSTASLRASTEELKKNPSEDALVENNRLIVENNAIIVENNRIIAAVLELIVRAIK
notes: forms a homotrimer; Tag-free form
- liposome disruption activity at pH 5 [2]: no detectable liposome activity
- interaction with liposomes by cryo-EM [3]: no interactions with liposomes at either pH; also recorded: does not interact with liposomes at either pH
- binding result [4]: binds
- colocalization with lysosomal membranes [5]: not observed in lysosomes
- oligomeric state at pH 7 / neutral pH [6]: assembled to the intended trimeric state
- pH response of oligomeric state (pH-induced disassembly) ([6]; pH ~7 to ~3): remained trimeric at low pH; also recorded: no significant pH response
- folding stability by GdmCl denaturation [7]: unaffected by change in pH

B2: pRO-2 I56V subunit (designed binder)
chain: GSEYEIRKALEELKAATAELKRATASLRAITEELKKNPSEDALVEHNRAIVEHNAIVVEHNRIIAAVLELIVRAIK
notes: forms a homotrimer; Tag-free form, and the entry already carries I56V
- binding result [8]: binds

B3: pRO-1: designed homotrimer, SEQ ID NO: 13-14 (protein)
chain 1: MGSSHHHHHHSSGLVPRGSHMGTLKEVLERLEEVLRRHREVAREHQRWAREHEQWVRDDPNSAKWIAESTRWILETTDAISRTADVLAEAIRVLAESD
chain 2: GSHMGTLKEVLERLEEVLRRHREVAREHQRWAREHEQWVRDDPNSAKWIAESTRWILETTDAISRTADVLAEAIRVLAESD
- oligomeric state by SEC [9]: trimeric at high concentration
- oligomeric state at pH 7 / neutral pH [6]: primarily dimeric

B4: pRO-4 Chain A (heterodimer pRO-4) (designed binder)
chain: MDEEDHLKKLKTHLEKLERHLKLLEDHAKKLEDILKERPEDSAVKESIDELRRSIELVRESIEIFRQSVEEEE
- binding result [10]: binds
